T1: EsCas13d, nuclease-dead (Eubacterium siraeum, UniProt B0MS50, R295A;H300A;R849A;H854A)
T1 sequence: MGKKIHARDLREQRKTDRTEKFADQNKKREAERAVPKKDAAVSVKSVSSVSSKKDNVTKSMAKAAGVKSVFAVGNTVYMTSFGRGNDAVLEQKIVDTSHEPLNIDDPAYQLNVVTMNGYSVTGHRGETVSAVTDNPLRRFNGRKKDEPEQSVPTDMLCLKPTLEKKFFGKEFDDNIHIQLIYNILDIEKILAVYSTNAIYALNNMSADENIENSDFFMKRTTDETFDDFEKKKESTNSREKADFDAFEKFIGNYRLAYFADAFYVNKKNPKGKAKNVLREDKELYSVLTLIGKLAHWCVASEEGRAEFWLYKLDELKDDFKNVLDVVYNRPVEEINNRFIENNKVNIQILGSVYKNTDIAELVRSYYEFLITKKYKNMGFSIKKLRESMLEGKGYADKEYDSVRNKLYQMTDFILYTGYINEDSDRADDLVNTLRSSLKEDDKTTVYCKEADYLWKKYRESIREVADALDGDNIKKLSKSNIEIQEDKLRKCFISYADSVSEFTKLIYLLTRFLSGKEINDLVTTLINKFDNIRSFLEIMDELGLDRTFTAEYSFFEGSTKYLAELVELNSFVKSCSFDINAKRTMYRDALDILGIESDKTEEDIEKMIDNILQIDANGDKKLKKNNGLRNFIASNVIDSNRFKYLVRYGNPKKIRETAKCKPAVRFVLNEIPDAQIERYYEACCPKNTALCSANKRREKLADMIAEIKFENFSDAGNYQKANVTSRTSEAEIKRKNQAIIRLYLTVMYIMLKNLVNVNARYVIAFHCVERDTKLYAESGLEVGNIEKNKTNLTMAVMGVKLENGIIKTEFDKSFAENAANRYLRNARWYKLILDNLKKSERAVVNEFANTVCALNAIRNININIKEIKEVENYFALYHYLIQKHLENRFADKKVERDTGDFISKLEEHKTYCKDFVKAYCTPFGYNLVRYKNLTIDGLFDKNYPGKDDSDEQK

B1: target 1 insG 3' of 4,insC 3' of 1 (mixed)
RNA 1: CACCCGUGCAAAAAUGCAGGGGUCUAAAACUGAGCGGAUAACCUCUCUAUGG
RNA 2: GGGAAUGGAUCCACAUCUACGAAUUCGUACCAUAGAGAGGUUAUCCGCGUCACCCGAGAUCGGAAGAGCACACGU
B2: target 1 insG 3' of 4,insA 3' of 2 (mixed)
RNA 1: B1 RNA 1
RNA 2: B1 RNA 2 with C53A
B3: target 1 insA 3' of 17,insU 3' of 9 (mixed)
RNA 1: B1 RNA 1
RNA 2: GGGAAUGGAUCCACAUCUACGAAUUCGUACCAUAGAAGAGGUUAUUCCGCUCACCGAGAUCGGAAGAGCACACGU
B4: target 2 MT 5'PFS GAC 3'PFS ACA (mixed)
RNA 1: CACCCGUGCAAAAUUGCAGGGGUCUAAAACCUUCUCCAAAUUGUUUCAUCCU
RNA 2: GGGAAUGGAUCCACAUCUACGAAUUCGACAGGAUGAAACAAUUUGGAGAAGACAAGAUCGGAAGAGCACACGU
B5: target 2 MT 5'PFS GAA 3'PFS AUA (mixed)
RNA 1: B4 RNA 1
RNA 2: B4 RNA 2 with C29A, C53U
B6: target 2 MT 5'PFS UUG 3'PFS AGA (mixed)
RNA 1: B4 RNA 1
RNA 2: B4 RNA 2 with G27U, A28U, C29G, C53G
B7: target 2 MT 5'PFS UAG 3'PFS UGA (mixed)
RNA 1: B4 RNA 1
RNA 2: B4 RNA 2 with G27U, C29G, A52U, C53G
B8: target 2 MT 5'PFS UUG 3'PFS AGC (mixed)
RNA 1: B4 RNA 1
RNA 2: B4 RNA 2 with G27U, A28U, C29G, C53G, A54C
B9: target 2 MT 5'PFS UUU 3'PFS UAA (mixed)
RNA 1: B4 RNA 1
RNA 2: B4 RNA 2 with G27U, A28U, C29U, A52U, C53A
B10: target 2 MT 5'PFS UUG 3'PFS AGG (mixed)
RNA 1: B4 RNA 1
RNA 2: B4 RNA 2 with G27U, A28U, C29G, C53G, A54G
B11: target 2 MT 5'PFS GAA 3'PFS AUC (mixed)
RNA 1: B4 RNA 1
RNA 2: B4 RNA 2 with C29A, C53U, A54C
B12: target 2 MT 5'PFS AAA 3'PFS CGC (mixed)
RNA 1: B4 RNA 1
RNA 2: B4 RNA 2 with G27A, C29A, A52C, C53G, A54C
B13: target 2 MT 5'PFS CGA 3'PFS CUC (mixed)
RNA 1: B4 RNA 1
RNA 2: B4 RNA 2 with G27C, A28G, C29A, A52C, C53U, A54C
B14: target 2 MT 5'PFS CGA 3'PFS UUC (mixed)
RNA 1: B4 RNA 1
RNA 2: B4 RNA 2 with G27C, A28G, C29A, A52U, C53U, A54C
B15: target 2 MT 5'PFS GAC 3'PFS ACC (mixed)
RNA 1: B4 RNA 1
RNA 2: B4 RNA 2 with A54C
B16: target 2 MT 5'PFS AAA 3'PFS CGA (mixed)
RNA 1: B4 RNA 1
RNA 2: B4 RNA 2 with G27A, C29A, A52C, C53G
B17: target 2 MT 5'PFS UGC 3'PFS CUA (mixed)
RNA 1: B4 RNA 1
RNA 2: B4 RNA 2 with G27U, A28G, A52C, C53U
B18: target 2 MT 5'PFS UUU 3'PFS UAC (mixed)
RNA 1: B4 RNA 1
RNA 2: B4 RNA 2 with G27U, A28U, C29U, A52U, C53A, A54C
B19: target 2 MT 5'PFS AAC 3'PFS ACU (mixed)
RNA 1: B4 RNA 1
RNA 2: B4 RNA 2 with G27A, A54U
B20: target 2 MT 5'PFS AAU 3'PFS UGU (mixed)
RNA 1: B4 RNA 1
RNA 2: B4 RNA 2 with G27A, C29U, A52U, C53G, A54U
B21: target 2 MT 5'PFS GCC 3'PFS UCA (mixed)
RNA 1: B4 RNA 1
RNA 2: B4 RNA 2 with A28C, A52U
B22: target 2 MT 5'PFS GUA 3'PFS UGC (mixed)
RNA 1: B4 RNA 1
RNA 2: B4 RNA 2 with A28U, C29A, A52U, C53G, A54C
B23: target 2 MT 5'PFS ACU 3'PFS CUG (mixed)
RNA 1: B4 RNA 1
RNA 2: B4 RNA 2 with G27A, A28C, C29U, A52C, C53U, A54G
B24: target 2 MT 5'PFS UUU 3'PFS UAU (mixed)
RNA 1: B4 RNA 1
RNA 2: B4 RNA 2 with G27U, A28U, C29U, A52U, C53A, A54U
B25: target 2 MT 5'PFS UUG 3'PFS AGU (mixed)
RNA 1: B4 RNA 1
RNA 2: B4 RNA 2 with G27U, A28U, C29G, C53G, A54U
B26: target 2 MT 5'PFS ACU 3'PFS CUC (mixed)
RNA 1: B4 RNA 1
RNA 2: B4 RNA 2 with G27A, A28C, C29U, A52C, C53U, A54C
B27: target 2 MT 5'PFS GAA 3'PFS AUG (mixed)
RNA 1: B4 RNA 1
RNA 2: B4 RNA 2 with C29A, C53U, A54G
B28: target 2 MT 5'PFS ACU 3'PFS CUA (mixed)
RNA 1: B4 RNA 1
RNA 2: B4 RNA 2 with G27A, A28C, C29U, A52C, C53U
B29: target 2 MT 5'PFS ACU 3'PFS CUU (mixed)
RNA 1: B4 RNA 1
RNA 2: B4 RNA 2 with G27A, A28C, C29U, A52C, C53U, A54U
B30: target 2 MT 5'PFS AUU 3'PFS UGU (mixed)
RNA 1: B4 RNA 1
RNA 2: B4 RNA 2 with G27A, A28U, C29U, A52U, C53G, A54U
B31: target 2 MT 5'PFS GAC 3'PFS ACG (mixed)
RNA 1: B4 RNA 1
RNA 2: B4 RNA 2 with A54G

Where a chain is given by its changes, count along the chain named.

The target in the data set is T1, EsCas13d, nuclease-dead. In words: crRNA (strand 1, pre-loaded); Mg2+; 40 mM Tris-HCl pH 7.5, 150 mM NaCl, 6 mM MgCl2, 1 mM DTT, 0.1% Tween-20, 0.2 mg/ml BSA; 25 C; 10 min per concentration, then washed. Conditions: tags: His6-TwinStrep-SUMO cleaved; N-terminal SNAP kept (SNAP-Surface 488); label: 3' end held by stalled T7 RNA polymerase.
As a reminder, the Kd is the constant that tells how readily two partners part at equilibrium. A lower Kd goes with higher affinity. On to B1, for which the Kd is 12.6 ± 1 nM. The figure for B2 is 5.43 ± 0.18 nM.

For the molecule B3, the dissociation constant Kd was 18.6 ± 3.3 nM.

For B4, binding was put at a Kd of 12.9 ± 2.6 nM. In the case of B5, binding was characterised by a dissociation constant (Kd) of 8.1 ± 1.4 nM. The result for B6 reads 7.9 ± 0.5 nM. The result for B7 reads 4.1 ± 0.8 nM; that for B8, 13.7 ± 2 nM.

Molecule B9 gave a Kd of 10.9 ± 1.7 nM.

Take B10: binding was characterised by a dissociation constant (Kd) of 14.1 ± 1.5 nM.

On to B11, for which the Kd amounted to 10.2 ± 1.6 nM. The result for B12 reads 3.3 ± 1 nM. The result for B13 reads 9.3 ± 1.8 nM; that for B14, 11.5 ± 1.9 nM; that for B15, 14.7 ± 2.3 nM. As to B16, the Kd was 3.4 ± 0.8 nM. B17 came in with a Kd of 16 ± 6 nM.

Take B18: the Kd came to 9.1 ± 1.2 nM. The result for B19 reads 9.1 ± 3.1 nM; that for B20, 9.1 ± 1.4 nM; that for B21, 17 ± 4 nM. The result for B22 reads 11.4 ± 1.5 nM. The result for B23 reads 6 ± 0.7 nM; that for B24, 8.4 ± 0.9 nM; that for B25, 14.5 ± 2.2 nM.

Consider B26, for which the Kd was determined as 5.4 ± 1.4 nM. B27 registered a dissociation constant (Kd) of 8.3 ± 1.1 nM. The result for B28 reads 3.5 ± 0.5 nM. Consider B29, for which the Kd turned out to be 6.2 ± 0.6 nM. The result for B30 reads 13.5 ± 1.7 nM; that for B31, 13.6 ± 2.1 nM.

The record behind these values is paper PMC10786891, “Massively parallel profiling of RNA-targeting CRISPR-Cas13d”.
